T1: HLA-A*01:01 (human, UniProt P04439-2 25-302)
T1 chain: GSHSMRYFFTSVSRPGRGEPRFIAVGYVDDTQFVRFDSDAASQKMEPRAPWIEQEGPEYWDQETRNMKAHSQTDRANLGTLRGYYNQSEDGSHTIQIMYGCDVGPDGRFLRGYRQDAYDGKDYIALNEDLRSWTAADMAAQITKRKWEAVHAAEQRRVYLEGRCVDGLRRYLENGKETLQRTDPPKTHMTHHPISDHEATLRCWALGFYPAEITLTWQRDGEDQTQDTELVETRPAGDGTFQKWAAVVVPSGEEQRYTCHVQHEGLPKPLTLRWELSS


The binders below were run against HLA-B*51:01 (human) (assay: in vitro peptide-MHC affinity measurement).

| IC50 [nM] | Binder |
| --- | --- |
| 144 | VALLVGEKV |
| 38 | IIYPTPKVV |
| 56.3 | VPPLVPKVL |
| 84.8 | TPESKIRFV |
| 31 | DAYPQRIKF |
| 6.5 | DAPLNIRSI |
| 12.6 | DGLRDLPSI |
| 1790 | YIIEREPLI |
| 0.2 | DGLLRVLTV |
| 13.5 | DGRLVINRV |
| 13.4 | DGYVVKETI |

These binders were tested against HLA-A*29:02 (human, UniProt P04439 25-308) (assay: in vitro peptide-MHC affinity measurement).

| IC50 [nM] | Binder |
| --- | --- |
| 2.6 | YLPALKVEY |
| 1.6 | HFLDRHLVF |
| 4.6 | LPLDIQIFY |
| 0.2 | FYPELKLAY |
| 29.7 | GLPDLVAKY |
| 6 | ALSDLALHF |
| 21.3 | GLDDKLLHY |

These binders were tested against HLA-B*54:01 (human, UniProt P01889 25-309) (assay: in vitro peptide-MHC affinity measurement).

| IC50 [nM] | Binder |
| --- | --- |
| 12.2 | FVEILIPVA |
| 1.7 | YPVYQPVGP |
| 16.4 | FPKETFEGP |
| 16.6 | SAPVNFISA |
| 6 | YGFVNYVTA |

Biological target: T1, HLA-A*01:01
Test: in vitro peptide-MHC affinity measurement

| IC50 [nM] | Binder |
| --- | --- |
| 191 | ATDGKVLLW |
| 78.9 | TTDGYLLRL |
| 1.3 | FLWPEAFLY |
| 70.6 | KLDLLEQEY |
| 80.8 | DTEFPNFKY |
| 11.1 | YVPEHWEYY |

— US20210104294A1 (published 2021)
